Patent publication US20210054094A1 (Hoffmann-La Roche, published 2021)

How the values were obtained:
Test in all cases: cell-based or functional assay
[1] = target: T1, human GPRC5D (human, UniProt Q9NZD1 1-345)
[2] = target: T1, human GPRC5D; remark: listed apart in the source
[3] = target: T1, human GPRC5D; remark: listed apart in the source

T1 sequence (Q9NZD1 whole entry): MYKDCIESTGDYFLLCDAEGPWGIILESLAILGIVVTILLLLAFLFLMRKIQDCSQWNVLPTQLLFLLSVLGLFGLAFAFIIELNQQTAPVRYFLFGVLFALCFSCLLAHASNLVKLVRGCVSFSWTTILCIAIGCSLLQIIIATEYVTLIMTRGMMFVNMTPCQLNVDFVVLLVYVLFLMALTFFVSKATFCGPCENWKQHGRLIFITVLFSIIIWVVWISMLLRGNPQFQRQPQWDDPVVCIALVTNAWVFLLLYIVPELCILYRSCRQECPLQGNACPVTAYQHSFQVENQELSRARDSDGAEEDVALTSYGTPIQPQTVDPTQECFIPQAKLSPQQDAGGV

B1: 5E11-TCB (bispecific antibody, human IgG1, kappa, L234A L235A)
light 1: DIVLTQSPALAVSPGQRATISCRASQSVSISGINLMNWYQQKPGQQPKLLIYHASILASGIPTRFSGSGSGTDFTLTIDPVQADDIATYYCQQTRESPLTFGSGTNLEIKRTVAAPSVFIFPPSDRKLKSGTASVVCLLNNFYPREAKVQWKVDNALQSGNSQESVTEQDSKDSTYSLSSTLTLSKADYEKHKVYACEVTHQGLSSPVTKSFNRGEC
light 2: EVQLLESGGGLVQPGGSLRLSCAASGFTFSTYAMNWVRQAPGKGLEWVSRIRSKYNNYATYYADSVKGRFTISRDDSKNTLYLQMNSLRAEDTAVYYCVRHGNFGNSYVSWFAYWGQGTLVTVSSASVAAPSVFIFPPSDEQLKSGTASVVCLLNNFYPREAKVQWKVDNALQSGNSQESVTEQDSKDSTYSLSSTLTLSKADYEKHKVYACEVTHQGLSSPVTKSFNRGEC
heavy 1: ELQLEQSGGGLVQPGGSLTLSCAASGFTFSKYAMAWVRQAPTKGLEWVASISTGGVNTYYRDSVKARFTISRDNAKNTQYLQMDSLRSEDTATYYCATHTGDYFDYWGQGVMVTVSSASTKGPSVFPLAPSSKSTSGGTAALGCLVEDYFPEPVTVSWNSGALTSGVHTFPAVLQSSGLYSLSSVVTVPSSSLGTQTYICNVNHKPSNTKVDEKVEPKSCDKTHTCPPCPAPEAAGGPSVFLFPPKPKDTLMISRTPEVTCVVVDVSHEDPEVKFNWYVDGVEVHNAKTKPREEQYNSTYRVVSVLTVLHQDWLNGKEYKCKVSNKALGAPIEKTISKAKGQPREPQVCTLPPSRDELTKNQVSLSCAVKGFYPSDIAVEWESNGQPENNYKTTPPVLDSDGSFFLVSKLTVDKSRWQQGNVFSCSVMHEALHNHYTQKSLSLSPGK
heavy 2: not shown
- EC50 of T cell cytotoxicity (LDH release) on AMO-1 cells [1]: 0.014 nM
- EC50 of T cell cytotoxicity (LDH release) on L363 cells [1]: 0.012 nM
- EC50 of T cell cytotoxicity (LDH release) on NCI-H929 cells [1]: 0.007 nM
- EC50 of T cell cytotoxicity (LDH release) on RPMI-8226 cells [1]: 0.024 nM
- EC50 of in vitro killing, AMO-1 cells [2]: 0.008 nM
- EC50 of in vitro killing, EJM cells [2]: 0.011 nM
- EC50 of in vitro killing, L363 cells [2]: 0.017 nM
- EC50 of in vitro killing, MOLP-2 cells [2]: 0.018 nM
- EC50 of in vitro killing, NCI-H929 cells [2]: 0.007 nM
- EC50 of in vitro killing, OPM-2 cells [2]: 0.002 nM
- EC50 of in vitro killing, RPMI cells [2]: 0.064 nM

B2: ET150-5-TCB (bispecific antibody, human IgG1, lambda, L234A L235A)
light 1: QSVLTQPPSASGTPGQRVTISCSGSRSNVGGNYVFWYQQVPGATPKLLIYRSNQRPSGVPDRFAGSKSGSSASLAISGLRSEDEADYYCATWDDSLSGFVFGTGTKVTVLGQPKAAPSVTLFPPSSKKLQANKATLVCLISDFYPGAVTVAWKADSSPVKAGVETTTPSKQSNNKYAASSYLSLTPEQWKSHRSYSCQVTHEGSTVEKTVAPTECS
light 2: EVQLLESGGGLVQPGGSLRLSCAASGFTFSTYAMNWVRQAPGKGLEWVSRIRSKYNNYATYYADSVKGRFTISRDDSKNTLYLQMNSLRAEDTAVYYCVRHGNFGNSYVSWFAYWGQGTLVTVSSASVAAPSVFIFPPSDEQLKSGTASVVCLLNNFYPREAKVQWKVDNALQSGNSQESVTEQDSKDSTYSLSSTLTLSKADYEKHKVYACEVTHQGLSSPVTKSFNRGEC
heavy 1: EVQLVESGGGLVKPGGSLRLSCAASGFTFSDYYMSWIRQAPGKGLEWVSYISSSGSTIYYADSVKGRFTISRDNAKNSLYLQMNSLRAEDTAVYYCARGYGKAYDQWGQGTLVTVSSASTKGPSVFPLAPSSKSTSGGTAALGCLVEDYFPEPVTVSWNSGALTSGVHTFPAVLQSSGLYSLSSVVTVPSSSLGTQTYICNVNHKPSNTKVDEKVEPKSCDKTHTCPPCPAPEAAGGPSVFLFPPKPKDTLMISRTPEVTCVVVDVSHEDPEVKFNWYVDGVEVHNAKTKPREEQYNSTYRVVSVLTVLHQDWLNGKEYKCKVSNKALGAPIEKTISKAKGQPREPQVCTLPPSRDELTKNQVSLSCAVKGFYPSDIAVEWESNGQPENNYKTTPPVLDSDGSFFLVSKLTVDKSRWQQGNVFSCSVMHEALHNHYTQKSLSLSPGK
heavy 2: not shown
- EC50 of T cell cytotoxicity (LDH release) on AMO-1 cells [1]: 0.0835 nM
- EC50 of T cell cytotoxicity (LDH release) on L363 cells [1]: 0.768 nM
- EC50 of T cell cytotoxicity (LDH release) on NCI-H929 cells [1]: 0.833 nM
- EC50 of T cell cytotoxicity (LDH release) on RPMI-8226 cells [1]: 0.797 nM

B3: P1AE5718 (antibody, V domains shown)
VH: ELQLLESGGGLVQPGGSLRLSCAASGFTFSKYAMAWVRQAPGKGLEWVASISTGGVNTYYRDSVKARFTISRDNAKNTLYLQMNSLRAEDTAVYYCATHTGDYFDYWGQGTMVTVSS
VL: DIQMTQSPSSLSASVGDRVTITCRASQSVSISGINLMNWYQQKPGKQPKLLIYHASILASGVPSRFSGSGSGTDFTLTISSLQPEDFATYYCQQTRESPLTFGQGTRLEIK
- CAR-J2 EC50 (PGLALA-CAR-J activation, L363 target cells) [3]: 105 ng/mL

B4: P1AE5724 (antibody, V domains shown)
VH: EVQLLESGGGLVQPGGSLRLSCAASGFTFSKYAMAWVRQAPGKGLEWVASISTGGVNTYYADSVKGRFTISRDNSKNTLYLQMNSLRAEDTAVYYCATHTGDYFDYWGQGTMVTVSS
VL: DIQMTQSPSSLSASVGDRVTITCRASQSVSISGINLMNWYQQKPGKQPKLLIYHASILASGVPSRFSGSGSGTDFTLTISSLQPEDFATYYCQQTRESPLTFGQGTRLEIK
- CAR-J2 EC50 (PGLALA-CAR-J activation, L363 target cells) [3]: 3.6 ng/mL

B5: P1AE5719 (antibody, V domains shown)
VH: ELQLLESGGGLVQPGGSLRLSCAASGFTFSKYAMAWVRQAPGKGLEWVASISTGGVNTYYRDSVKARFTISRDNAKNTLYLQMNSLRAEDTAVYYCATHTGDYFDYWGQGTMVTVSS
VL: DIQMTQSPSSLSASVGDRVTITCRASQSVSISGINLMNWYQQKPGQQPKLLIYHASILASGVPSRFSGSGSGTDFTLTISSLQPEDFATYYCQQTRESPLTFGQGTRLEIK
- CAR-J2 EC50 (PGLALA-CAR-J activation, L363 target cells) [3]: 2.8 ng/mL

B6: P1AE5731 (antibody, V domains shown)
VH: ELQLLESGGGLVQPGGSLRLSCAASGFTFSKYAMAWVRQAPGKGLEWVASISTGGVNTYYADSVKGRFTISRDNAKNTLYLQMNSLRAEDTAVYYCATHTGDYFDYWGQGTMVTVSS
VL: DIQMTQSPSSLSASVGDRVTITCRASQSVSISGINLMNWYQQKPGQQPKLLIYHASILASGVPSRFSGSGSGTDFTLTISSLQPEDFATYYCQQTRESPLTFGQGTRLEIK
- CAR-J2 EC50 (PGLALA-CAR-J activation, L363 target cells) [3]: 2.3 ng/mL

B7: P1AE5725 (antibody, V domains shown)
VH: EVQLLESGGGLVQPGGSLRLSCAASGFTFSKYAMAWVRQAPGKGLEWVASISTGGVNTYYADSVKGRFTISRDNSKNTLYLQMNSLRAEDTAVYYCATHTGDYFDYWGQGTMVTVSS
VL: DIQMTQSPSSLSASVGDRVTITCRASQSVSISGINLMNWYQQKPGQQPKLLIYHASILASGVPSRFSGSGSGTDFTLTISSLQPEDFATYYCQQTRESPLTFGQGTRLEIK
- CAR-J2 EC50 (PGLALA-CAR-J activation, L363 target cells) [3]: 10.9 ng/mL

B8: P1AE5730 (antibody, V domains shown)
VH: ELQLLESGGGLVQPGGSLRLSCAASGFTFSKYAMAWVRQAPGKGLEWVASISTGGVNTYYADSVKGRFTISRDNAKNTLYLQMNSLRAEDTAVYYCATHTGDYFDYWGQGTMVTVSS
VL: DIQMTQSPSSLSASVGDRVTITCRASQSVSISGINLMNWYQQKPGKQPKLLIYHASILASGVPSRFSGSGSGTDFTLTISSLQPEDFATYYCQQTRESPLTFGQGTRLEIK
- CAR-J2 EC50 (PGLALA-CAR-J activation, L363 target cells) [3]: 3.5 ng/mL
